B1: Twister Ribozyme (parent)
chain: AACACUGCCAAUGCCGGUCCCAAGCCCGGAUAAAAGUGGAGGGGGCGG

Variants of: B1
Assay: self-cleavage, relative activity (ratio to wild type); higher = more cleavage; co-transcriptional

Row | Variant | self-cleavage
1 | A11C C26A | 0.183
2 | A11C C26G | 0.08
3 | A11C G17A | 0.134
4 | A11C G17U | 0.14
5 | A10U G44A | 0.924
6 | A10C A23G | 0.453
7 | A10G G17U | 0.388
8 | C9U C15G | 0.0427
9 | A10U A33C | 1.08
10 | A10U A33U | 1.07
11 | A10U A33G | 0.825
12 | A11G G13U | 0.705
13 | A10G G45U | 0.883
14 | A10G G45A | 1.13
15 | A10G | 1.02
16 | A10C | 1.01
17 | A10U | 0.982
18 | A10C C27U | 0.932
19 | A10C G38C | 0.813
20 | A10C G38U | 0.832
21 | A11C G16C | 0.187
22 | C9U A40C | 0.161
23 | C9U A40G | 0.14
24 | C9U A40U | 0.162

Row | Variant | self-cleavage
25 | A10G C27G | 0.105
26 | A10G C27A | 0.682
27 | A10C C15G | 0.0331
28 | A10C C15A | 0.493
29 | A10C C15U | 0.942
30 | A10C C14A | 1.05
31 | A11G G28U | 0.725
32 | A11G G28A | 0.84
33 | A11G G28C | 0.801
34 | A10G C15U | 0.902
35 | A10C C21U | 0.122
36 | A10C C21A | 0.124
37 | A10C G48A | 0.822
38 | A10C G48U | 1.01
39 | A10C G29U | 0.912
40 | A10C G29C | 0.845
41 | A10C G29A | 0.86
42 | A11C U31C | 0.876
43 | A11G C25G | 0.437
44 | A11C A33G | 0.893
45 | A11C A33C | 0.724
46 | C9U U18G | 0.059
47 | C9U U18A | 0.0726
48 | C9U U18C | 0.0748

Row | Variant | self-cleavage
49 | A10U A40G | 0.191
50 | C9U G24U | 0.0861
51 | A10C C26A | 0.664
52 | A10C C26G | 0.175
53 | C9U G45C | 0.157
54 | A11G C21G | 0.0655
55 | A11G C21U | 0.12
56 | A11G C21A | 0.107
57 | A10G A30G | 0.897
58 | A11C A32U | 0.831
59 | A11C A32C | 0.769
60 | A11C G43U | 0.252
61 | A11C G43C | 0.159
62 | A10C A33U | 1.08
63 | A10C A33G | 1.04
64 | A11G C19A | 0.221
65 | A11G A40G | 0.11
66 | C9U U37C | 0.122
67 | C9U U37G | 0.419
68 | C9U U37A | 0.26
69 | A11G A34C | 0.353
70 | A11G A34U | 0.913
71 | A11C G41A | 0.336
72 | A11C G42C | 0.419

Row | Variant | self-cleavage
73 | C9U G29A | 0.635
74 | A10G C25U | 0.874
75 | A10G C25A | 0.139
76 | A11G G16A | 0.627
77 | A10U A23U | 0.632
78 | A10U C14G | 0.244
79 | A10U C14A | 0.824
80 | A10C G44C | 0.867
81 | A10C G44A | 0.932
82 | A10C A22G | 0.256
83 | A10C A22U | 0.78
84 | A10U G24A | 0.0831
85 | A10U G24C | 0.0965
86 | A11G C20U | 0.797
87 | A11G C20A | 0.117
88 | A11G C20G | 0.197
89 | C9U G13C | 0.592
90 | C9U G13A | 1.03
91 | A11G G36U | 0.431
92 | A10U U37A | 0.86
93 | A10U U37C | 0.667
94 | A11G C26G | 0.234
95 | A11G C26U | 0.466
96 | A10C G24A | 0.0991

Row | Variant | self-cleavage
97 | A10C G24U | 0.0955
98 | A10U G16A | 0.89
99 | A10G C26G | 0.354
100 | A10G U31C | 0.817
101 | A10G U31A | 0.696
102 | A10G U31G | 0.994
103 | A10U A35G | 0.808
104 | A10U A35C | 1.16
105 | A11G G29U | 0.762
106 | A11G G29A | 0.772
107 | A10U G39U | 0.215
108 | A10U G39A | 0.531
109 | C9U C27G | 0.0911
110 | C9U C27U | 0.37
111 | A11C G36C | 0.636
112 | C9U C14U | 0.596
113 | C9U C14A | 0.56
114 | A10G U18C | 0.807
115 | A11C G28U | 0.563
116 | A11C G28A | 0.656
117 | A10C U37G | 0.692
118 | A10C U37A | 0.881
119 | A10U C25U | 0.731
120 | A10U C25A | 0.0757

Row | Variant | self-cleavage
121 | A10U A11C | 1.03
122 | A10U A11U | 1.14
123 | A10U A11G | 1.09
124 | C9U G41C | 0.128
125 | A10G G28U | 1.04
126 | A10G G28A | 1.08
127 | A10C G13A | 0.764
128 | A10C G13C | 0.408
129 | A10U C19A | 0.331
130 | A10U C19G | 0.367
131 | A10G G47U | 1.01
132 | A10G G48C | 1.2
133 | A11C C15G | 0.0591
134 | A11C C15U | 0.545
135 | A11C A30U | 0.959
136 | A11G A35G | 0.826
137 | A11G A35U | 0.941
138 | A10G A35G | 0.92
139 | C9U C25G | 0.113
140 | C9U G39A | 0.139
141 | A10G A23U | 0.92
142 | A10G A32C | 1.02
143 | A11C A22U | 0.58
144 | A10U G28C | 0.768

Row | Variant | self-cleavage
145 | A10U G28A | 0.885
146 | A10C G47A | 0.834
147 | A10U C46G | 0.857
148 | A10U C46A | 0.913
149 | A11C U18G | 0.0822
150 | A11C U18A | 0.159
151 | A11C U18C | 0.154
152 | A10C A35C | 1.08
153 | A10C A35U | 1.04
154 | A10U G48C | 1.09
155 | A10U G48U | 0.933
156 | A11C A23U | 0.149
157 | A11C A23G | 0.249
158 | A10G G24A | 0.178
159 | A11C G38U | 1.03
160 | A11C G38A | 0.768
161 | A11C G38C | 0.731
162 | A10G G43U | 0.576
163 | A10C A11C | 0.907
164 | A10C A11G | 1.12
165 | A10C A11U | 0.883
166 | A11C C27A | 0.176
167 | A11C C27U | 0.352

Source: the RNAGym collection of RNA variant scans (doi:10.7554/elife.80360)
